Key:
[1] = molecular target: PTP-CIF3 (Trypanosoma brucei); assay: co-IP; PTP-tagged protein precipitated from T. brucei lysate with IgG-Sepharose beads, 30 min at 4°C, IP buffer, five washes; 3HA-tagged partner detected by anti-HA immunoblot; complementation lines induced with tetracycline
[2] = molecular target: CIF1 (endogenous) (Trypanosoma brucei (endogenous in T. brucei cells)); assay: co-IP; endogenous CIF1 or TbPLK precipitated from T. brucei lysate with anti-CIF1 or anti-TbPLK antibody and protein A-Sepharose beads, 30 min at 4°C, IP buffer; 3HA-tagged CIF3* and mutants detected by anti-HA immunoblot; band intensity by ImageJ, normalised to CIF1 and compared with the input

| percent of the input protein immunoprecipitated [1] [%] | Substance | percent of the input protein immunoprecipitated [2] [%] |
| --- | --- | --- |
| 50 | CIF1-3HA (ectopic, full-length CIF1) (natural protein) |  |
| 24 | CIF1-ΔIDR1-3HA (domain or fragment) |  |

Further lines, the substance ahead of its results:

| Substance | percent of the input protein immunoprecipitated [1] [%] | percent of the input protein immunoprecipitated [2] [%] |
| --- | --- | --- |
| CIF1-ΔIDR2-3HA (natural protein) | 72 |  |
| CIF3*-3HA (full-length recoded, RNAi-resistant CIF3) (natural protein) |  | 21 |
| CIF3*-ΔCC1-3HA (domain or fragment) |  | 16 |
| CIF3*-ΔCC2-3HA (natural protein) |  | 31 |
| CIF3*-ΔCC3-3HA (natural protein) |  | 3 |

From paper PMC9044925
